Patent US20220204580A1 (AstraZeneca / MedImmune, published 2022)
Numbered stars: 1 amine (or outer) side, 2 acyl side, 3 side chain; on linkers, the order of the positions; unused ones are H or OH. Bridge positions count the residues as written; N and C are the ends. Square brackets hold non-standard residues; d marks the D form. Side chains are listed from the residue outwards. Ends that are not written are not given here. * marks the point of attachment. C18 diacid = O=C(O)CCCCCCCCCCCCCCCCC(=O)*; γGlu = O=C(O)[C@H](CCC(=O)[*:2])N[*:1]; αMeF = C[C@](N)(Cc1ccccc1)C(=O)O; Dab = NCC[C@H](N)C(=O)O; Aib = CC(C)(N)C(=O)O

Experiments:
[1] = biological target: T1, human calcitonin receptor (human, UniProt P30988 25-474); assay: cell-based or functional assay
T1 sequence (looked up): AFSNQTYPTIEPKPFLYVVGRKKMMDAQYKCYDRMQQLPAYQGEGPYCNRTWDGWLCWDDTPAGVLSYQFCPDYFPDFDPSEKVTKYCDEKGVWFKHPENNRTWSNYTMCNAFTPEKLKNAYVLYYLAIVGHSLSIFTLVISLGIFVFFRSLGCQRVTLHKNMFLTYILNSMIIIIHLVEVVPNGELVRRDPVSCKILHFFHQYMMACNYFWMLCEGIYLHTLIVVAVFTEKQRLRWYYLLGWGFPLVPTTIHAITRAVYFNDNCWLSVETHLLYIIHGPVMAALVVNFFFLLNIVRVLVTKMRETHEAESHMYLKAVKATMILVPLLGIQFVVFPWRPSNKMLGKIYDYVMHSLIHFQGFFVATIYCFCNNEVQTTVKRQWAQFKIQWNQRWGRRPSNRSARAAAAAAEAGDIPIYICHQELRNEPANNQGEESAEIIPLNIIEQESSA

[2] = biological target: T2, human amylin receptor (calcitonin receptor co-expressed with receptor activity modifying protein, RAMP3) (human, UniProt P30988 25-474; O60896 24-148); assay: cell-based or functional assay
T2 sequence (looked up) 1: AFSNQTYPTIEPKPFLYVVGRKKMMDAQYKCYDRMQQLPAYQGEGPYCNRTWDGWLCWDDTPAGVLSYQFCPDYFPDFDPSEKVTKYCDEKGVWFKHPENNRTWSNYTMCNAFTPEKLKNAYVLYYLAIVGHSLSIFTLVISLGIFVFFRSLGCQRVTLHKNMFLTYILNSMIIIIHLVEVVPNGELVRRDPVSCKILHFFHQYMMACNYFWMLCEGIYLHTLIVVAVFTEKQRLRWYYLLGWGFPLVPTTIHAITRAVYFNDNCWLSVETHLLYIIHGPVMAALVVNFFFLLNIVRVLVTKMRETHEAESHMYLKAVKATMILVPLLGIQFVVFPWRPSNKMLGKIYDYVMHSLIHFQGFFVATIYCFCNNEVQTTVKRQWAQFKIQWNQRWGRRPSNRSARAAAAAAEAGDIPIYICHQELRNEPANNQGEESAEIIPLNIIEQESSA
T2 sequence (looked up) 2: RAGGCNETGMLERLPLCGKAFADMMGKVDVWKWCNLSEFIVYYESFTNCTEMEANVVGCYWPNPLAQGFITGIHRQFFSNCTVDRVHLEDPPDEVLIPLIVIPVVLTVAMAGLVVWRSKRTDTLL

| Binder | EC50 (cAMP production) [1] [nM] | EC50 (cAMP production) [2] [nM] | Ratio (EC50 hCTR / EC50 hAMYR3) [2] |
| --- | --- | --- | --- |
| K([γGlu-C18 diacid])KCNTATCATQRLANFLVHSS[Dab]NFG[Aib]ILPPTNVGSNTY-NH2 (disulfide 3-8; N-terminus assumed; SMILES CC[C@H](C)[C@H](NC(=O)C(C)(C)NC(=O)CNC(=O)[C@H](Cc1ccccc1)NC(=O)[C@H](CC(N)=O)NC(=O)[C@H](CCN)NC(=O)[C@H](CO)NC(=O)[C@H](CO)NC(=O)[C@H](Cc1c[nH]cn1)NC(=O)[C@@H](NC(=O)[C@H](CC(C)C)NC(=O)[C@H](Cc1ccccc1)NC(=O)[C@H](CC(N)=O)NC(=O)[C@H](C)NC(=O)[C@H](CC(C)C)NC(=O)[C@H](CCCNC(=N)N)NC(=O)[C@H](CCC(N)=O)NC(=O)[C@@H](NC(=O)[C@H](C)NC(=O)[C@@H]1CSSC[C@H](NC(=O)[C@H](CCCCN)NC(=O)[C@@H](N)CCCCNC(=O)CC[C@H](NC(=O)CCCCCCCCCCCCCCCCC(=O)O)C(=O)O)C(=O)N[C@@H](CC(N)=O)C(=O)N[C@@H]([C@@H](C)O)C(=O)N[C@@H](C)C(=O)N[C@@H]([C@@H](C)O)C(=O)N1)[C@@H](C)O)C(C)C)C(=O)N[C@@H](CC(C)C)C(=O)N1CCC[C@H]1C(=O)N1CCC[C@H]1C(=O)N[C@H](C(=O)N[C@@H](CC(N)=O)C(=O)N[C@H](C(=O)NCC(=O)N[C@@H](CO)C(=O)N[C@@H](CC(N)=O)C(=O)N[C@H](C(=O)N[C@@H](Cc1ccc(O)cc1)C(N)=O)[C@@H](C)O)C(C)C)[C@@H](C)O) [Peptide 31 (SEQ ID NO: 31)] | 1.28 | 0.349 | 4 |
| K([γGlu-C18 diacid])KCNTATCATQRLANFLVHSS[Dab]NFGPILPPTEVGSNTY-NH2 (disulfide 3-8; N-terminus assumed; SMILES CC[C@H](C)[C@H](NC(=O)[C@@H]1CCCN1C(=O)CNC(=O)[C@H](Cc1ccccc1)NC(=O)[C@H](CC(N)=O)NC(=O)[C@H](CCN)NC(=O)[C@H](CO)NC(=O)[C@H](CO)NC(=O)[C@H](Cc1c[nH]cn1)NC(=O)[C@@H](NC(=O)[C@H](CC(C)C)NC(=O)[C@H](Cc1ccccc1)NC(=O)[C@H](CC(N)=O)NC(=O)[C@H](C)NC(=O)[C@H](CC(C)C)NC(=O)[C@H](CCCNC(=N)N)NC(=O)[C@H](CCC(N)=O)NC(=O)[C@@H](NC(=O)[C@H](C)NC(=O)[C@@H]1CSSC[C@H](NC(=O)[C@H](CCCCN)NC(=O)[C@@H](N)CCCCNC(=O)CC[C@H](NC(=O)CCCCCCCCCCCCCCCCC(=O)O)C(=O)O)C(=O)N[C@@H](CC(N)=O)C(=O)N[C@@H]([C@@H](C)O)C(=O)N[C@@H](C)C(=O)N[C@@H]([C@@H](C)O)C(=O)N1)[C@@H](C)O)C(C)C)C(=O)N[C@@H](CC(C)C)C(=O)N1CCC[C@H]1C(=O)N1CCC[C@H]1C(=O)N[C@H](C(=O)N[C@@H](CCC(=O)O)C(=O)N[C@H](C(=O)NCC(=O)N[C@@H](CO)C(=O)N[C@@H](CC(N)=O)C(=O)N[C@H](C(=O)N[C@@H](Cc1ccc(O)cc1)C(N)=O)[C@@H](C)O)C(C)C)[C@@H](C)O) [Peptide 28 (SEQ ID NO: 28)] | 9.14 | 0.39 | 23 |
| K([γGlu-C18 diacid])KCNTATCATQRLANFL[Aib]HSS[Dab]NFGPILPPTEVGSNTY-NH2 (disulfide 3-8; N-terminus assumed; SMILES CC[C@H](C)[C@H](NC(=O)[C@@H]1CCCN1C(=O)CNC(=O)[C@H](Cc1ccccc1)NC(=O)[C@H](CC(N)=O)NC(=O)[C@H](CCN)NC(=O)[C@H](CO)NC(=O)[C@H](CO)NC(=O)[C@H](Cc1c[nH]cn1)NC(=O)C(C)(C)NC(=O)[C@H](CC(C)C)NC(=O)[C@H](Cc1ccccc1)NC(=O)[C@H](CC(N)=O)NC(=O)[C@H](C)NC(=O)[C@H](CC(C)C)NC(=O)[C@H](CCCNC(=N)N)NC(=O)[C@H](CCC(N)=O)NC(=O)[C@@H](NC(=O)[C@H](C)NC(=O)[C@@H]1CSSC[C@H](NC(=O)[C@H](CCCCN)NC(=O)[C@@H](N)CCCCNC(=O)CC[C@H](NC(=O)CCCCCCCCCCCCCCCCC(=O)O)C(=O)O)C(=O)N[C@@H](CC(N)=O)C(=O)N[C@@H]([C@@H](C)O)C(=O)N[C@@H](C)C(=O)N[C@@H]([C@@H](C)O)C(=O)N1)[C@@H](C)O)C(=O)N[C@@H](CC(C)C)C(=O)N1CCC[C@H]1C(=O)N1CCC[C@H]1C(=O)N[C@H](C(=O)N[C@@H](CCC(=O)O)C(=O)N[C@H](C(=O)NCC(=O)N[C@@H](CO)C(=O)N[C@@H](CC(N)=O)C(=O)N[C@H](C(=O)N[C@@H](Cc1ccc(O)cc1)C(N)=O)[C@@H](C)O)C(C)C)[C@@H](C)O) [Peptide 30 (SEQ ID NO: 30)] | 10.5 | 0.873 | 12 |
| K([γGlu-C18 diacid])KCNTATCATQRLANFLVHSS[Dab]NFGPILPPTNVGSNTY-NH2 (disulfide 3-8; N-terminus assumed; SMILES CC[C@H](C)[C@H](NC(=O)[C@@H]1CCCN1C(=O)CNC(=O)[C@H](Cc1ccccc1)NC(=O)[C@H](CC(N)=O)NC(=O)[C@H](CCN)NC(=O)[C@H](CO)NC(=O)[C@H](CO)NC(=O)[C@H](Cc1c[nH]cn1)NC(=O)[C@@H](NC(=O)[C@H](CC(C)C)NC(=O)[C@H](Cc1ccccc1)NC(=O)[C@H](CC(N)=O)NC(=O)[C@H](C)NC(=O)[C@H](CC(C)C)NC(=O)[C@H](CCCNC(=N)N)NC(=O)[C@H](CCC(N)=O)NC(=O)[C@@H](NC(=O)[C@H](C)NC(=O)[C@@H]1CSSC[C@H](NC(=O)[C@H](CCCCN)NC(=O)[C@@H](N)CCCCNC(=O)CC[C@H](NC(=O)CCCCCCCCCCCCCCCCC(=O)O)C(=O)O)C(=O)N[C@@H](CC(N)=O)C(=O)N[C@@H]([C@@H](C)O)C(=O)N[C@@H](C)C(=O)N[C@@H]([C@@H](C)O)C(=O)N1)[C@@H](C)O)C(C)C)C(=O)N[C@@H](CC(C)C)C(=O)N1CCC[C@H]1C(=O)N1CCC[C@H]1C(=O)N[C@H](C(=O)N[C@@H](CC(N)=O)C(=O)N[C@H](C(=O)NCC(=O)N[C@@H](CO)C(=O)N[C@@H](CC(N)=O)C(=O)N[C@H](C(=O)N[C@@H](Cc1ccc(O)cc1)C(N)=O)[C@@H](C)O)C(C)C)[C@@H](C)O) [Peptide 29 (SEQ ID NO: 29)] | 8.21 | 0.243 | 34 |
| K([γGlu-C18 diacid])KCNTATCATQRLA[Dab]FLVHSSNN[αMeF]GPILPPTEVGSNTY-NH2 (disulfide 3-8; N-terminus assumed; SMILES CC[C@H](C)[C@H](NC(=O)[C@@H]1CCCN1C(=O)CNC(=O)[C@](C)(Cc1ccccc1)NC(=O)[C@H](CC(N)=O)NC(=O)[C@H](CC(N)=O)NC(=O)[C@H](CO)NC(=O)[C@H](CO)NC(=O)[C@H](Cc1c[nH]cn1)NC(=O)[C@@H](NC(=O)[C@H](CC(C)C)NC(=O)[C@H](Cc1ccccc1)NC(=O)[C@H](CCN)NC(=O)[C@H](C)NC(=O)[C@H](CC(C)C)NC(=O)[C@H](CCCNC(=N)N)NC(=O)[C@H](CCC(N)=O)NC(=O)[C@@H](NC(=O)[C@H](C)NC(=O)[C@@H]1CSSC[C@H](NC(=O)[C@H](CCCCN)NC(=O)[C@@H](N)CCCCNC(=O)CC[C@H](NC(=O)CCCCCCCCCCCCCCCCC(=O)O)C(=O)O)C(=O)N[C@@H](CC(N)=O)C(=O)N[C@@H]([C@@H](C)O)C(=O)N[C@@H](C)C(=O)N[C@@H]([C@@H](C)O)C(=O)N1)[C@@H](C)O)C(C)C)C(=O)N[C@@H](CC(C)C)C(=O)N1CCC[C@H]1C(=O)N1CCC[C@H]1C(=O)N[C@H](C(=O)N[C@@H](CCC(=O)O)C(=O)N[C@H](C(=O)NCC(=O)N[C@@H](CO)C(=O)N[C@@H](CC(N)=O)C(=O)N[C@H](C(=O)N[C@@H](Cc1ccc(O)cc1)C(N)=O)[C@@H](C)O)C(C)C)[C@@H](C)O) [Peptide 32 (SEQ ID NO: 32)] | 11.1 | 0.742 | 15 |
| K([γGlu-C18 diacid])KCNTATCATQRLA[Dab]FLVHSSNNFGPILPPTNVGSNTY-NH2 (disulfide 3-8; N-terminus assumed; SMILES CC[C@H](C)[C@H](NC(=O)[C@@H]1CCCN1C(=O)CNC(=O)[C@H](Cc1ccccc1)NC(=O)[C@H](CC(N)=O)NC(=O)[C@H](CC(N)=O)NC(=O)[C@H](CO)NC(=O)[C@H](CO)NC(=O)[C@H](Cc1c[nH]cn1)NC(=O)[C@@H](NC(=O)[C@H](CC(C)C)NC(=O)[C@H](Cc1ccccc1)NC(=O)[C@H](CCN)NC(=O)[C@H](C)NC(=O)[C@H](CC(C)C)NC(=O)[C@H](CCCNC(=N)N)NC(=O)[C@H](CCC(N)=O)NC(=O)[C@@H](NC(=O)[C@H](C)NC(=O)[C@@H]1CSSC[C@H](NC(=O)[C@H](CCCCN)NC(=O)[C@@H](N)CCCCNC(=O)CC[C@H](NC(=O)CCCCCCCCCCCCCCCCC(=O)O)C(=O)O)C(=O)N[C@@H](CC(N)=O)C(=O)N[C@@H]([C@@H](C)O)C(=O)N[C@@H](C)C(=O)N[C@@H]([C@@H](C)O)C(=O)N1)[C@@H](C)O)C(C)C)C(=O)N[C@@H](CC(C)C)C(=O)N1CCC[C@H]1C(=O)N1CCC[C@H]1C(=O)N[C@H](C(=O)N[C@@H](CC(N)=O)C(=O)N[C@H](C(=O)NCC(=O)N[C@@H](CO)C(=O)N[C@@H](CC(N)=O)C(=O)N[C@H](C(=O)N[C@@H](Cc1ccc(O)cc1)C(N)=O)[C@@H](C)O)C(C)C)[C@@H](C)O) [Peptide 33 (SEQ ID NO: 33)] | 15.8 | 0.598 | 26 |
